The source of these data is patent US20040186048.

For the series, the target named is Ferritin-H (ferritin heavy chain) (Homo sapiens) (UniProt P02794). The experiment in a line: cell_activity. As to conditions: CV-1 cells, EKLF-stimulated beta-CAT reporter.
Chain of Ferritin-H (ferritin heavy chain) (Homo sapiens) (P02794 2-183): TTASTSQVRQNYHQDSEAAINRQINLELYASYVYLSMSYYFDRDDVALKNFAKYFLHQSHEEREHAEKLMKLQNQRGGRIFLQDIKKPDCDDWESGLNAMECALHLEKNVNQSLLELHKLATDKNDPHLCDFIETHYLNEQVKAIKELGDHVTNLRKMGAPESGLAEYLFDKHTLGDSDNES

On to beta-globin 5' region -610/+20 (630 bp), for which the activity was 62 % repression.
